Measurements: publication PMC6003988, “VRK1 and AURKB form a complex that cross inhibit their kinase activity and the phosphorylation of histone H3 in the progression of mitosis” (Cellular and Molecular Life Sciences: CMLS, 2018)

Biological target: T1, V5–AURKB, expressed in HEK293T cells (UniProt Q96GD4 1-344)
T1 construct: Aurora kinase B (AURKB), wild type; plasmid pDEST3.1_nV5-AurkB provided by Malumbres [65]; also called Aurora B; Aurora kinase B; source: HEK293T, transfected, in lysate
Experiment: co-IP; immunoprecipitation of V5-AURKB from extracts of HEK293T cells co-transfected with GST-VRK1 or HA-VRK1, WT or kinase-dead; VRK1 detected by immunoblot, quantified
Conditions: partners not purified

T1 sequence (Q96GD4 whole entry): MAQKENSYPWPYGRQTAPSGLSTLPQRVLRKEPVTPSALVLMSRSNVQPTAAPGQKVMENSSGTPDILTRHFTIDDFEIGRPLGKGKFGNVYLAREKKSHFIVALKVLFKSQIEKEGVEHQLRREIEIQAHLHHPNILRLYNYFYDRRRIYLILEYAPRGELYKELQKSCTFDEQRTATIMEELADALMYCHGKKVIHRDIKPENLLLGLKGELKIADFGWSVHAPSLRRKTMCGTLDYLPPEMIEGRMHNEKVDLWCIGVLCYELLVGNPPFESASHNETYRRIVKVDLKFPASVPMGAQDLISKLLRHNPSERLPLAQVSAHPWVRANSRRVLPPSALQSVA

fold binding against active VRK1 [fold]	Binder
~3	HA–VRK1–K179E, kinase-dead, expressed in HEK293T cells (enzyme, human, UniProt Q99986 1-396, looked up, Vaccinia-related kinase 1 (VRK1), kinase-dead mutant K179E; plasmid pCEFL-HA-VRK1-K179E; also called HA–VRK1–KD; pCEFL–HA–VRK1–K179E; source: HEK293T, transfected, in lysate) MPRVKAAQAGRQSSAKRHLAEQFAVGEIITDMAKKEWKVGLPIGQGGFGCIYLADMNSSESVGSDAPCVVKVEPSDNGPLFTELKFYQRAAKPEQIQKWIRTRKLKYLGVPKYWGSGLHDKNGKSYRFMIMDRFGSDLQKIYEANAKRFSRKTVLQLSLRILDILEYIHEHEYVHGDIEASNLLLNYKNPDQVYLVDYGLAYRYCPEGVHKEYKEDPKRCHDGTIEFTSIDAHNGVAPSRRGDLEILGYCMIQWLTGHLPWEDNLKDPKYVRDSKIRYRENIASLMDKCFPEKNKPGEIAKYMETVKLLDYTEKPLYENLRDILLQGLKAIGSKDDGKLDLSVVENGGLKAKTITKKRKKEIEESKEPGVEDTEWSNTQTEEAIQTRSRTRKRVQK
~3	GST–VRK1 (K179E), kinase inactive, expressed in HEK293T cells (enzyme, human, UniProt Q99986 1-396, looked up, Vaccinia-related kinase 1 (VRK1), kinase-dead mutant K179E; also called GST-VRK1 KD; kinase-dead VRK1 (K179E); source: HEK293T, transfected, in lysate) MPRVKAAQAGRQSSAKRHLAEQFAVGEIITDMAKKEWKVGLPIGQGGFGCIYLADMNSSESVGSDAPCVVKVEPSDNGPLFTELKFYQRAAKPEQIQKWIRTRKLKYLGVPKYWGSGLHDKNGKSYRFMIMDRFGSDLQKIYEANAKRFSRKTVLQLSLRILDILEYIHEHEYVHGDIEASNLLLNYKNPDQVYLVDYGLAYRYCPEGVHKEYKEDPKRCHDGTIEFTSIDAHNGVAPSRRGDLEILGYCMIQWLTGHLPWEDNLKDPKYVRDSKIRYRENIASLMDKCFPEKNKPGEIAKYMETVKLLDYTEKPLYENLRDILLQGLKAIGSKDDGKLDLSVVENGGLKAKTITKKRKKEIEESKEPGVEDTEWSNTQTEEAIQTRSRTRKRVQK
